One assay has as its target T1, EcLac (Escherichia coli, UniProt P00722).
T1 construct: gene lacZ; commercial enzyme purchased from Sigma, lyophilized; homotetramer
In words: ONPG hydrolysis, absorbance […] nm. The format is biochemical. The following applies: PBS pH 7.0, 0.1 mM MgCl2, 5 mM ONPG, 8 nM enzyme; temperature series.

The target in assay [1] is AiLac triple mutant (V648E, F702L, T742V) (Alkalilactibacillus ikkensis). In words: mass photometry; TwoMP mass photometer, 21°C; 0.25 μL of a 1 mg/mL (8.4 μM) stock added to 19.75 μL buffer, about 100 nM final.
The target is the same in assay [2]. Put plainly: flow-induced dispersion analysis (FIDA); 125 nM (WT) or 60 nM (TM) Alexa Fluor 488-labelled protein as indicator, pre-mixed with unlabelled protein of the same kind, 4 h at 4°C, buffer A; Rh fitted to a monomer-dimer model; constant of dimer to monomers.
Assay [3] deals with GH2 β-galactosidase from Alkalilactibacillus ikkensis (AiLac), wild type (Alkalilactibacillus ikkensis). In words: SAXS; 0.40 mg/mL AiLac in 50 mM bis-tris propane, pH 7.0-8.0, 20°C; mass from I(0).
Assay [4] has the same target. In words: SAXS; second peak of the SEC purification, 1.15 mg/mL, buffer A, 20°C, 1800 s; mass from I(0).
The target is the same in assay [5]. Put plainly: SEC-MALS; Superdex 200 10/300 GL Increase, buffer A (PBS + 0.1 mM MgCl2, pH 7.0), room temperature, 0.5 mL/min, 50 μL of 1.5 mg/mL Ni-NTA purified protein loaded.
Assay [6] has the same target. Put plainly: DSF (melting temperature against protein concentration); apparent; SEC-purified AiLac at 3.9 μg/mL to 4 mg/mL, 0.5°C/min, buffer A; tm fitted to the monomer-dimer equation (5); dimer to monomers.
The target is the same in assay [7]. In words: flow-induced dispersion analysis (FIDA); 125 nM (WT) or 60 nM (TM) Alexa Fluor 488-labelled protein as indicator, pre-mixed with unlabelled protein of the same kind, 4 h at 4°C, buffer A; Rh fitted to a monomer-dimer model; constant of dimer to monomers.
For assay [8] the target is unchanged. Described as above. The source holds these as a separate data set.

Specific activity, stoichiometry N and Kd data for three compounds are collected here from paper PMC12023411, “Quaternary stabilization of a GH2 β‐galactosidase from the psychrophile A. ikkensis, a flexible and unstable dimeric enzyme” (Protein Science : A Publication of the Protein Society, 2025).

Where “and” joins values, the source holds several entries; their conditions need not be identical. Equal values may be shown once.

T1 sequence (P00722 whole entry): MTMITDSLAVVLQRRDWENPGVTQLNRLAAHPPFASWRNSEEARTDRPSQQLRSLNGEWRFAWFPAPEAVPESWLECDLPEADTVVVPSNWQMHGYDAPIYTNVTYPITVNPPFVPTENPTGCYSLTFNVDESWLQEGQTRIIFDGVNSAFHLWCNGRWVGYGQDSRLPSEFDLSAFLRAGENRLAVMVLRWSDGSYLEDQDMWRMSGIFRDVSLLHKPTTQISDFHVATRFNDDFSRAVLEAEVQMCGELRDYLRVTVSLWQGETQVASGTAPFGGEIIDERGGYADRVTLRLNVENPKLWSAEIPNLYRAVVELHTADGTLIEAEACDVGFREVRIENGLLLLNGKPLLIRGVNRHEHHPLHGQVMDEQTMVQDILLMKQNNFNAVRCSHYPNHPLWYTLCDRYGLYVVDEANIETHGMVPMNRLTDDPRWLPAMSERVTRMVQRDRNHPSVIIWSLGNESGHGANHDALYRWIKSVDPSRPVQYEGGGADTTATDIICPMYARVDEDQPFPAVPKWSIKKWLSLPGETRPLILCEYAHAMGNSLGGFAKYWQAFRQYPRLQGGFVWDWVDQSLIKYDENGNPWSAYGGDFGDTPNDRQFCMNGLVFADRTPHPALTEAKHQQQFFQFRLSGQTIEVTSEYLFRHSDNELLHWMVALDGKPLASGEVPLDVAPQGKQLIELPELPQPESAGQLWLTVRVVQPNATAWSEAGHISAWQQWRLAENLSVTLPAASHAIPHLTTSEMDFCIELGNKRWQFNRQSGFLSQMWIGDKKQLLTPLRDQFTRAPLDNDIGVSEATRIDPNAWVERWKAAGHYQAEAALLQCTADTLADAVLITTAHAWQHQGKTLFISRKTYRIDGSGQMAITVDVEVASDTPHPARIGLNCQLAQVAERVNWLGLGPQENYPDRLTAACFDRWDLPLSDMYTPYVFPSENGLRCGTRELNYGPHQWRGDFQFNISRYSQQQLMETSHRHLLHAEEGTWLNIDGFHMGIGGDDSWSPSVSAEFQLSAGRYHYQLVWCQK

For the compound `O=[N+]([O-])c1ccccc1O[C@@H]1O[C@H](CO)[C@H](O)[C@H](O)[C@H]1O` [ONPG], the specific activity result on EcLac is “Activity of the AiLac and EcLac (purchased from Sigma) was assessed by hydrolysis of ONPG”.

In the case of “AiLac triple mutant (V648E, F702L, T742V) (enzyme)”, the stoichiometry N in assay [1] was 4; in assay [2], 2 and 4.

In the case of “GH2 β-galactosidase from Alkalilactibacillus ikkensis (AiLac), wild type (enzyme)”, the stoichiometry N in [3] is 2; in assay [4] it was 1.7 monomers; in assay [5], 4 and 2; in [7], 2. Besides, the Kd in assay [6] worked out at 150 nM; in assay [7], 230 nM; in [8], 300 nM.
